The source of these data is US20170283834A1, “Processes for Producing A Fermentation Product Using A Fermenting Organism” (Novozymes A/S, priority 2014, published 2017).

The nature of this series: Penicillium oxalicum glucoamylase: pH stability. In kind it is biochemical. The procedure: Substrate: 1% soluble starch (Sigma S-9765) in deionized water
20 microL soluble starch and 50 microL acetate buffer at pH 5.3 were mixed. 30 microL enzyme solution (50 micro g enzyme protein/ml) was added to a final volume of 100 microL followed by incubation at 37° C. for 15 min.
The glucose concentration was determined by Wako kits.
pH optimum. To assess the pH optimum of the Penicillium oxalicum glucoamylase the Reaction condition assay described above was performed at pH 2.0, 3.0, 3.5, 4.0, 4.5, 5.0, 6.0 7.0, 8.0, 9.0, 10.0 and 11.0. Instead of using the acetate buffer described in the Reaction condition assay the following buffer was used 100 mM Succinic acid, HEPES, CHES, CAPSO, 1 mM CaCl2, 150 mM KCl, 0.01% Triton X-100, pH adjusted to 2.0, 3.0, 3.5, 4.0, 4.5, 5.0, 6.0 7.0, 8.0, 9.0, 10.0 or 11.0 with HCl or NaOH.
To assess the […] of the Penicillium oxalicum glucoamylase the Reaction condition assay was modifed in that the enzyme solution (50 micro g/mL) was preincubated for 20 hours in buffers with pH 2.0, 3.0, 3.5, 4.0, 4.5, 5.0, 6.0 7.0, 8.0, 9.0, 10.0 and 11.0 using the buffers described under pH optimum. After preincubation, 20 microL soluble starch to a final volume of 100 microL was added to the solution and the assay was performed as described above.

B1: Penicillium oxalicum glucoamylase: wild type Penicillium oxalicum glucoamylase disclosed in SEQ ID NO: 9 (protein, listed as Penicillium oxalicum)
chain: MRLTLLSGVAGVLCAGQLTAARPDPKGGNLTPFIHKEGERSLQGILDNLGGRGKKTPGTAAGLFIASPNTENPNYYYTWTRDSALTAKCLIDLFEDSRAKFPIDRKYLETGIRDYVSSQAILQSVSNPSGTLKDGSGLGEPKFEIDLNPFSGAWGRPQRDGPALRATAMITYANYLISHGQKSDVSQVMWPIIANDLAYVGQYWNNTGFDLWEEVDGSSFFTIAVQHRALVEGSQLAKKLGKSCDACDSQPPQILCFLQSFWNGKYITSNINTQASRSGIDLDSVLGSIHTFDPEAACDDATFQPCSARALANHKVYVDSFRSIYKINAGLAEGSAANVGRYPEDVYQGGNPWYLATLGASELLYDALYQWDRLGKLEVSETSLSFFKDFDATVKIGSYSRNSKTYKKLTQSIKSYADGFIQLVQQYTPSNGSLAEQYDRNTAAPLSANDLTWSFASFLTATQRRDAVVPPSWGAKSANKVPTTCSASPVVGTYKAPTATFSSKTKCVPAKDIVPITFYLIENTYYGENVFMSGNITALGNWDAKKGFPLTANLYTQDQNLWFASVEFIPAGTPFEYKYYKVEPNGDITWEKGPNRVFVAPTGCPVQPHSNDVWQF
Regarding B1, the “Relative activity (%)” value is 17.4% (preincubated 20 hours at pH 2.0); 98.0% (preincubated 20 hours at pH 3.0); 98.0% (preincubated 20 hours at pH 3.5); 103.2% (preincubated 20 hours at pH 4.0); 100.0% (preincubated 20 hours at pH 4.5); 93.4% (preincubated 20 hours at pH 5.0). The “Relative activity (%)” value is given as 71.2% (preincubated 20 hours at pH 6.0); 90.7% (preincubated 20 hours at pH 7.0); 58.7% (preincubated 20 hours at pH 8.0); 17.4% (preincubated 20 hours at pH 9.0); 17.0% (preincubated 20 hours at pH 10.0); 17.2% (preincubated 20 hours at pH 11.0).
